The results in this text go back to US20220402983A1 (Janssen / Centocor, published 2022).

T1: human IL-23R (interleukin-23 receptor) (human, UniProt Q5VWK5 24-629)
T1 sequence (looked up): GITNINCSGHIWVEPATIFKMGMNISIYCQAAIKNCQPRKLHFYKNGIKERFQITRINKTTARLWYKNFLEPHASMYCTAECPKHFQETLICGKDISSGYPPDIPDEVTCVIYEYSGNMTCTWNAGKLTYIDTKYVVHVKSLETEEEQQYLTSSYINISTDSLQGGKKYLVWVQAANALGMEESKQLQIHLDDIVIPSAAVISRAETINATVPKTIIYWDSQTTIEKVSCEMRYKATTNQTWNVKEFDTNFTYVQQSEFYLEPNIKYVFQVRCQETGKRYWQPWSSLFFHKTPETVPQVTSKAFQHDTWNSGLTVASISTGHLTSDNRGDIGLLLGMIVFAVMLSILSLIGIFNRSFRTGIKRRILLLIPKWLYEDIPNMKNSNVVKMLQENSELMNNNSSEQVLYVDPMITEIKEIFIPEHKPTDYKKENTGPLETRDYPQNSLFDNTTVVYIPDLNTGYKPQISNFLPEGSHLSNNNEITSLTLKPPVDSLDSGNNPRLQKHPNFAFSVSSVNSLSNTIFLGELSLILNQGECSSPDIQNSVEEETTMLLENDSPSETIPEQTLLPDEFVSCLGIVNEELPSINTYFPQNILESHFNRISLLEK

B1: Compound No. 106 (peptide)
peptide: Ac-[dR][Pen]NTWK(Ac)[Pen][AEF][2Nal][Thp]EN[αMeF]-NH2
modifications: disulfide 2-7
SMILES: CC(=O)NCCCC[C@@H]1NC(=O)[C@H](Cc2c[nH]c3ccccc23)NC(=O)[C@H]([C@@H](C)O)NC(=O)[C@H](CC(N)=O)NC(=O)[C@@H](NC(=O)[C@@H](CCCNC(=N)N)NC(C)=O)C(C)(C)SSC(C)(C)[C@@H](C(=O)N[C@@H](Cc2ccc(OCCN)cc2)C(=O)N[C@@H](Cc2ccc3ccccc3c2)C(=O)NC2(C(=O)N[C@@H](CCC(=O)O)C(=O)N[C@@H](CC(N)=O)C(=O)N[C@@](C)(Cc3ccccc3)C(N)=O)CCOCC2)NC1=O
B2: Compound No. 104 (peptide)
peptide: Ac-[Pen]NT[Trp(7-Me)][Cit][Pen][AEF][2Nal][αMeL]K(Ac)N[αMeF]-NH2
modifications: disulfide 1-6
SMILES: CC(=O)NCCCC[C@H](NC(=O)[C@](C)(CC(C)C)NC(=O)[C@H](Cc1ccc2ccccc2c1)NC(=O)[C@H](Cc1ccc(OCCN)cc1)NC(=O)[C@H]1NC(=O)[C@H](CCCNC(N)=O)NC(=O)[C@H](Cc2c[nH]c3c(C)cccc23)NC(=O)[C@H]([C@@H](C)O)NC(=O)[C@H](CC(N)=O)NC(=O)[C@@H](NC(C)=O)C(C)(C)SSC1(C)C)C(=O)N[C@@H](CC(N)=O)C(=O)N[C@@](C)(Cc1ccccc1)C(N)=O
B3: Compound No. 110 (peptide)
peptide: Ac-[dR][Pen]QTWQ[Pen][AEF][2Nal][Thp]EN[(N-benzyl)Asn]-NH2
modifications: disulfide 2-7
B4: Compound No. 108 (peptide)
peptide: Ac-[Pen]NT[Trp(7-Me)][Cit][Pen][AEF][2Nal][αMeL]K(Ac)N[Thp]-NH2
modifications: disulfide 1-6
SMILES: CC(=O)NCCCC[C@H](NC(=O)[C@](C)(CC(C)C)NC(=O)[C@H](Cc1ccc2ccccc2c1)NC(=O)[C@H](Cc1ccc(OCCN)cc1)NC(=O)[C@H]1NC(=O)[C@H](CCCNC(N)=O)NC(=O)[C@H](Cc2c[nH]c3c(C)cccc23)NC(=O)[C@H]([C@@H](C)O)NC(=O)[C@H](CC(N)=O)NC(=O)[C@@H](NC(C)=O)C(C)(C)SSC1(C)C)C(=O)N[C@@H](CC(N)=O)C(=O)NC1(C(N)=O)CCOCC1
B5: Compound No. 98 (peptide)
peptide: Ac-[Pen]NTWK(Ac)[Pen][AEF][2Nal][αMeK]K(Ac)N[αMeF]-NH2
modifications: disulfide 1-6
SMILES: CC(=O)NCCCC[C@@H]1NC(=O)[C@H](Cc2c[nH]c3ccccc23)NC(=O)[C@H]([C@@H](C)O)NC(=O)[C@H](CC(N)=O)NC(=O)[C@@H](NC(C)=O)C(C)(C)SSC(C)(C)[C@@H](C(=O)N[C@@H](Cc2ccc(OCCN)cc2)C(=O)N[C@@H](Cc2ccc3ccccc3c2)C(=O)N[C@@](C)(CCCCN)C(=O)N[C@@H](CCCCNC(C)=O)C(=O)N[C@@H](CC(N)=O)C(=O)N[C@@](C)(Cc2ccccc2)C(N)=O)NC1=O
B6: Compound No. 103 (peptide)
peptide: Ac-[Pen]NTWK(Tfa)[Pen][AEF][2Nal][αMeK]K(Ac)N[Thp]-NH2
modifications: disulfide 1-6
SMILES: CC(=O)NCCCC[C@H](NC(=O)[C@](C)(CCCCN)NC(=O)[C@H](Cc1ccc2ccccc2c1)NC(=O)[C@H](Cc1ccc(OCCN)cc1)NC(=O)[C@H]1NC(=O)[C@H](CCCCNC(=O)C(F)(F)F)NC(=O)[C@H](Cc2c[nH]c3ccccc23)NC(=O)[C@H]([C@@H](C)O)NC(=O)[C@H](CC(N)=O)NC(=O)[C@@H](NC(C)=O)C(C)(C)SSC1(C)C)C(=O)N[C@@H](CC(N)=O)C(=O)NC1(C(N)=O)CCOCC1
B7: Compound No. 102 (peptide)
peptide: Ac-[dR][Pen]NTWK(Ac)[Pen][AEF][2Nal][Ac5c]EN[αMeF]-NH2
modifications: disulfide 2-7
SMILES: CC(=O)NCCCC[C@@H]1NC(=O)[C@H](Cc2c[nH]c3ccccc23)NC(=O)[C@H]([C@@H](C)O)NC(=O)[C@H](CC(N)=O)NC(=O)[C@@H](NC(=O)[C@@H](CCCNC(=N)N)NC(C)=O)C(C)(C)SSC(C)(C)[C@@H](C(=O)N[C@@H](Cc2ccc(OCCN)cc2)C(=O)N[C@@H](Cc2ccc3ccccc3c2)C(=O)NC2(C(=O)N[C@@H](CCC(=O)O)C(=O)N[C@@H](CC(N)=O)C(=O)N[C@@](C)(Cc3ccccc3)C(N)=O)CCCC2)NC1=O
B8: Compound No. 99 (peptide)
peptide: Ac-[dR][Pen]NT[Trp(7-Me)]Q[Pen][AEF][2Nal][Ac5c]EN[Thp]-NH2
modifications: disulfide 2-7
SMILES: CC(=O)N[C@H](CCCNC(=N)N)C(=O)N[C@@H]1C(=O)N[C@@H](CC(N)=O)C(=O)N[C@@H]([C@@H](C)O)C(=O)N[C@@H](Cc2c[nH]c3c(C)cccc23)C(=O)N[C@@H](CCC(N)=O)C(=O)N[C@H](C(=O)N[C@@H](Cc2ccc(OCCN)cc2)C(=O)N[C@@H](Cc2ccc3ccccc3c2)C(=O)NC2(C(=O)N[C@@H](CCC(=O)O)C(=O)N[C@@H](CC(N)=O)C(=O)NC3(C(N)=O)CCOCC3)CCCC2)C(C)(C)SSC1(C)C
B9: Compound No. 112 (peptide)
peptide: Ac-[Pen]NT[Trp(7-Me)]K(Ac)[Pen][AEF][2Nal][αMeK]K(Ac)N[Phe(4-NH2)]-NH2
modifications: disulfide 1-6
SMILES: CC(=O)NCCCC[C@@H]1NC(=O)[C@H](Cc2c[nH]c3c(C)cccc23)NC(=O)[C@H]([C@@H](C)O)NC(=O)[C@H](CC(N)=O)NC(=O)[C@@H](NC(C)=O)C(C)(C)SSC(C)(C)[C@@H](C(=O)N[C@@H](Cc2ccc(OCCN)cc2)C(=O)N[C@@H](Cc2ccc3ccccc3c2)C(=O)N[C@@](C)(CCCCN)C(=O)N[C@@H](CCCCNC(C)=O)C(=O)N[C@@H](CC(N)=O)C(=O)N[C@@H](Cc2ccc(N)cc2)C(N)=O)NC1=O
B10: Compound No. 107 (peptide)
peptide: Ac-[Pen]NT[Trp(7-Me)]K(Ac)[Pen][AEF][2Nal][αMeK]K(Ac)N[Thp][dY]-NH2
modifications: disulfide 1-6
SMILES: CC(=O)NCCCC[C@@H]1NC(=O)[C@H](Cc2c[nH]c3c(C)cccc23)NC(=O)[C@H]([C@@H](C)O)NC(=O)[C@H](CC(N)=O)NC(=O)[C@@H](NC(C)=O)C(C)(C)SSC(C)(C)[C@@H](C(=O)N[C@@H](Cc2ccc(OCCN)cc2)C(=O)N[C@@H](Cc2ccc3ccccc3c2)C(=O)N[C@@](C)(CCCCN)C(=O)N[C@@H](CCCCNC(C)=O)C(=O)N[C@@H](CC(N)=O)C(=O)NC2(C(=O)N[C@H](Cc3ccc(O)cc3)C(N)=O)CCOCC2)NC1=O
B11: Compound No. 101 (peptide)
peptide: Ac-[dR][Pen]NT[Trp(7-Me)]K(Ac)[Pen][AEF][2Nal][Ac5c]EN[Thp]-NH2
modifications: disulfide 2-7
SMILES: CC(=O)NCCCC[C@@H]1NC(=O)[C@H](Cc2c[nH]c3c(C)cccc23)NC(=O)[C@H]([C@@H](C)O)NC(=O)[C@H](CC(N)=O)NC(=O)[C@@H](NC(=O)[C@@H](CCCNC(=N)N)NC(C)=O)C(C)(C)SSC(C)(C)[C@@H](C(=O)N[C@@H](Cc2ccc(OCCN)cc2)C(=O)N[C@@H](Cc2ccc3ccccc3c2)C(=O)NC2(C(=O)N[C@@H](CCC(=O)O)C(=O)N[C@@H](CC(N)=O)C(=O)NC3(C(N)=O)CCOCC3)CCCC2)NC1=O
B12: Compound No. 100 (peptide)
peptide: Ac-[Pen]NT[Trp(7-Me)]K(Ac)[Pen][AEF][2Nal][αMeK]K(Ac)N[αMeF][dY]-NH2
modifications: disulfide 1-6
SMILES: CC(=O)NCCCC[C@@H]1NC(=O)[C@H](Cc2c[nH]c3c(C)cccc23)NC(=O)[C@H]([C@@H](C)O)NC(=O)[C@H](CC(N)=O)NC(=O)[C@@H](NC(C)=O)C(C)(C)SSC(C)(C)[C@@H](C(=O)N[C@@H](Cc2ccc(OCCN)cc2)C(=O)N[C@@H](Cc2ccc3ccccc3c2)C(=O)N[C@@](C)(CCCCN)C(=O)N[C@@H](CCCCNC(C)=O)C(=O)N[C@@H](CC(N)=O)C(=O)N[C@@](C)(Cc2ccccc2)C(=O)N[C@H](Cc2ccc(O)cc2)C(N)=O)NC1=O
B13: Compound No. 105 (peptide)
peptide: Ac-[dR][Pen]NTWK(Ac)[Pen][AEF][2Nal][Thp]EN[Thp]-NH2
modifications: disulfide 2-7
SMILES: CC(=O)NCCCC[C@@H]1NC(=O)[C@H](Cc2c[nH]c3ccccc23)NC(=O)[C@H]([C@@H](C)O)NC(=O)[C@H](CC(N)=O)NC(=O)[C@@H](NC(=O)[C@@H](CCCNC(=N)N)NC(C)=O)C(C)(C)SSC(C)(C)[C@@H](C(=O)N[C@@H](Cc2ccc(OCCN)cc2)C(=O)N[C@@H](Cc2ccc3ccccc3c2)C(=O)NC2(C(=O)N[C@@H](CCC(=O)O)C(=O)N[C@@H](CC(N)=O)C(=O)NC3(C(N)=O)CCOCC3)CCOCC2)NC1=O

Bridges are numbered along the chain shown (N, C = ends). [ ]: non-standard residue; d: D form. The star is where a group is joined. Trp(7-Me) = Cc1cccc2c(C[C@H](N)C(=O)O)c[nH]c12; Phe(4-NH2) = Nc1ccc(C[C@H](N)C(=O)O)cc1; 2Nal = N[C@@H](Cc1ccc2ccccc2c1)C(=O)O; (N-benzyl)Asn = N-benzyl-asparagine; AEF = NCCOc1ccc(C[C@H](N)C(=O)O)cc1; αMeF = C[C@](N)(Cc1ccccc1)C(=O)O; Cit = NC(=O)NCCC[C@H](N)C(=O)O; αMeL = CC(C)C[C@](C)(N)C(=O)O; Pen = CC(C)(S)[C@H](N)C(=O)O; αMeK = C[C@](N)(CCCCN)C(=O)O; Ac5c = NC1(C(=O)O)CCCC1; Thp = NC1(C(=O)O)CCOCC1; Tfa = O=C(C(F)(F)F)*

The target of this assay is T1, human IL-23R (interleukin-23 receptor). Kind of assay: cell-based or functional assay.
With B1, the “PBMC pSTAT3 IC50 (nM)” value worked out at 13 nM.

Consider B2, for which the “PBMC pSTAT3 IC50 (nM)” value is 8.2 nM. Consider B3, for which the “PBMC pSTAT3 IC50 (nM)” value was determined as 700 nM. The same measure, in the same setting: the figure for B4 is 5.1 nM; for B5 it is 15 nM; for B6 it is 57 nM. In the case of B7, the “PBMC pSTAT3 IC50 (nM)” value came out at 8.4 nM. B8: the “PBMC pSTAT3 IC50 (nM)” value was 4.2 nM. With B9, the “pStat3 HTRF (nM), IC50, DB cells IL23R pSTAT3 cell assay” value was found to be 2.09 nM. On to B10, for which the “PBMC pSTAT3 IC50 (nM)” value was 11 nM. On to B11, for which the “PBMC pSTAT3 IC50 (nM)” value is 0.74 nM. On to B12, for which the “PBMC pSTAT3 IC50 (nM)” value amounted to 21 nM.

For B13, the “PBMC pSTAT3 IC50 (nM)” value came out at 2.2 nM.
